The values below come from PMC5792436, “TT(N)mGCCTC inhibits archaeal family B DNA polymerases”.

The target in data set [1] is Taq DNA polymerase (Fig. 4A) (UniProt P19821 1-832). In words: EMSA; no Mg2+; 10 mM Tris-HCl pH 7.9, 50 mM KCl, 1 mM EDTA, 5% glycerol, 1 mM DTT, 25 ug/ml BSA; no MgCl2, no poly(dI-dC); 20 min at room temperature; 6% PAGE in 0.5X TBE. The following applies: protein: commercial; label: 5' biotin. For orientation: Mobility shift assays separate free from complexed probe on a gel.
Chain of Taq DNA polymerase (Fig. 4A) (P19821 whole entry): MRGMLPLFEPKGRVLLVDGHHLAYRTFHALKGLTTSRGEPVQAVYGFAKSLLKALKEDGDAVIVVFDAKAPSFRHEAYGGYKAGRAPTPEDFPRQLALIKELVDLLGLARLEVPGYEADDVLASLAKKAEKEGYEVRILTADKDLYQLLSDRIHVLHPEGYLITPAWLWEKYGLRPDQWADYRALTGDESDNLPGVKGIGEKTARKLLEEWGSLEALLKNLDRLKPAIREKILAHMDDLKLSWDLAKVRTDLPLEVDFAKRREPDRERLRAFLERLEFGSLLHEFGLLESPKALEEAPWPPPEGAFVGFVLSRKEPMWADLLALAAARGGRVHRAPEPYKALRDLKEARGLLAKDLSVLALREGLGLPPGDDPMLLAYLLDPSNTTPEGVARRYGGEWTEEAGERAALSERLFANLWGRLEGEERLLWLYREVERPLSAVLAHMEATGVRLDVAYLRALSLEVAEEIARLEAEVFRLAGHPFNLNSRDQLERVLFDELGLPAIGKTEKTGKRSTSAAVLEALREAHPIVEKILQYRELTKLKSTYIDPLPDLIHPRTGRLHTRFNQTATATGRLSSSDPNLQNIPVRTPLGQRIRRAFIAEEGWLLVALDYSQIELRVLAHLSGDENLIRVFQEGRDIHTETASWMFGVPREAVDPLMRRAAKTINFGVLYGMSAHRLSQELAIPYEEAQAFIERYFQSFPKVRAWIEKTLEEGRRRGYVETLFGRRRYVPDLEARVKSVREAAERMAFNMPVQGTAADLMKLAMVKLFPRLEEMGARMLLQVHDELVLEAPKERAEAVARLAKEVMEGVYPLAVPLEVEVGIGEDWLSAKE

Data set [2] deals with T1, KOD DNA polymerase, purified (pET22b-KOD) (UniProt D0VWU9 1-774).
T1 sequence: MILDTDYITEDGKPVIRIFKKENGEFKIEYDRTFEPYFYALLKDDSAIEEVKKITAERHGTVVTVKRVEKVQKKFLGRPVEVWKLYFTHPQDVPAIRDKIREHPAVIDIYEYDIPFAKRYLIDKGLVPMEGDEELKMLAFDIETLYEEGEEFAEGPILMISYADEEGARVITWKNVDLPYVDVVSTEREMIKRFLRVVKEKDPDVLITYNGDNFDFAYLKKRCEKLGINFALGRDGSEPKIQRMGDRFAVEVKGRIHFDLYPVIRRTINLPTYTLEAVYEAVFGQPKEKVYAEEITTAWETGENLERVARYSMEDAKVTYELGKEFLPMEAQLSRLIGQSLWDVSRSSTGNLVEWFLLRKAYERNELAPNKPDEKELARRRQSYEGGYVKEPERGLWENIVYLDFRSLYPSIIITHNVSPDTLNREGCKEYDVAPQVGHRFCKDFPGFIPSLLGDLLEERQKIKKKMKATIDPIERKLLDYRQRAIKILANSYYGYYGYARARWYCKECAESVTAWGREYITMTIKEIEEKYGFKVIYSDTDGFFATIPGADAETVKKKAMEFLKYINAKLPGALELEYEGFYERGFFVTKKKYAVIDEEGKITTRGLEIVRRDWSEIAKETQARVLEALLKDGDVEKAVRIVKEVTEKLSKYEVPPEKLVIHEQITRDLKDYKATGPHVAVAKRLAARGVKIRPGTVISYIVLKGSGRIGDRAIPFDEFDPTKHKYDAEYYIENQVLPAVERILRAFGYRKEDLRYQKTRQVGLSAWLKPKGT
As to the kind of experiment: EMSA; 2 nM DNA, no Mg2+; 10 mM Tris-HCl pH 7.9, 50 mM KCl, 1 mM EDTA, 5% glycerol, 1 mM DTT, 25 ug/ml BSA; no MgCl2, no poly(dI-dC); 20 min at room temperature; 6% PAGE in 0.5X TBE. The following applies: protein: recombinant; tags: His; label: 5' biotin.

Usually Kd stands for the concentration at which binding is half-saturated. Consider TACCGAGCTCTTACGCGTGCCTCTGACTTGCCTCAGAGC (ssDNA) [Bio-Olig2.5], for which the binding result in data set [1] was “no binding”. Also, the Kd in data set [2] was ~40 nM.
